Experimental data: the Immune Epitope Database (IEDB)

How the values were obtained:
HLA-C*05:01 = assay: IEDB peptide-MHC binding, purified MHC/direct/fluorescence; filed as Kd, often an IC50 or EC50 that approximates it; ≥ and ≤ were set here for values at or beyond the usual limits of such assays; conditions: source organism: human gammaherpesvirus 4
HLA-C*08:02 = assay: as above; conditions: source organism: human gammaherpesvirus 4
HLA-C*12:03 = assay: as above
HLA-A*01:01 = assay: as above
HLA-A*02:01 = assay: as above
HLA-A*02:11 = assay: as above
HLA-A*02:12 = assay: as above
HLA-A*03:01 = assay: as above
HLA-A*23:01 = assay: as above
HLA-A*24:03 = assay: as above
HLA-A*29:02 = assay: as above
HLA-A*68:02 = assay: as above
HLA-B*07:02 = assay: as above
HLA-B*08:01 = assay: as above
HLA-B*15:01 = assay: as above
HLA-B*18:01 = assay: as above
HLA-B*27:05 = assay: as above
HLA-B*40:01 = assay: as above
HLA-B*46:01 = assay: as above
HLA-B*48:01 = assay: as above; conditions: source organism: Orthohantavirus negraense
HLA-A*26:01 [1] = assay: IEDB peptide-MHC binding, purified MHC/competitive/fluorescence; filed as Kd, often an IC50 or EC50 that approximates it; ≥ and ≤ were set here for values at or beyond the usual limits of such assays; conditions: source organism: Orthohantavirus tulaense
HLA-A*69:01 [2] = assay: as above; conditions: source organism: Orthohantavirus tulaense
HLA-B*27:03 [3] = assay: as above; conditions: source organism: Orthohantavirus tulaense
HLA-B*39:01 [4] = assay: as above; conditions: source organism: Orthohantavirus tulaense
HLA-B*51:01 [5] = assay: as above; conditions: source organism: Orthohantavirus tulaense
HLA-A*11:01 = assay: IEDB peptide-MHC binding, purified MHC/direct/fluorescence; filed as Kd, often an IC50 or EC50 that approximates it; ≥ and ≤ were set here for values at or beyond the usual limits of such assays; conditions: source organism: Cryptosporidium parvum
HLA-A*26:01 [6] = assay: as above
HLA-A*31:01 = assay: as above; conditions: source organism: Cryptosporidium parvum
HLA-A*69:01 [7] = assay: as above
HLA-B*35:01 = assay: as above
HLA-B*44:02 = assay: as above; conditions: source organism: Cryptosporidium parvum
HLA-B*58:01 = assay: as above; conditions: source organism: Cryptosporidium parvum
HLA-A*02:50 = assay: IEDB peptide-MHC binding, purified MHC/competitive/fluorescence; filed as Kd, often an IC50 or EC50 that approximates it; ≥ and ≤ were set here for values at or beyond the usual limits of such assays; conditions: source organism: Cryptosporidium parvum
HLA-B*15:17 = assay: IEDB peptide-MHC binding, purified MHC/direct/fluorescence; filed as Kd, often an IC50 or EC50 that approximates it; ≥ and ≤ were set here for values at or beyond the usual limits of such assays
HLA-B*27:03 [8] = assay: as above
HLA-B*39:01 [9] = assay: as above
HLA-B*57:01 = assay: as above
HLA-A*80:01 = assay: as above
HLA-B*15:02 [10] = assay: IEDB peptide-MHC binding, purified MHC/competitive/fluorescence; filed as Kd, often an IC50 or EC50 that approximates it; ≥ and ≤ were set here for values at or beyond the usual limits of such assays; conditions: source organism: Shigella boydii CDC 3083-94
HLA-A*02:03 = assay: IEDB peptide-MHC binding, purified MHC/direct/fluorescence; filed as Kd, often an IC50 or EC50 that approximates it; ≥ and ≤ were set here for values at or beyond the usual limits of such assays
HLA-A*02:16 = assay: as above
HLA-A*02:19 = assay: as above
HLA-B*51:01 [11] = assay: as above
HLA-B*15:02 [12] = assay: as above; conditions: source organism: Hantaan virus Q32
[13] = source organism: Orthohantavirus negraense
[14] = source organism: Orthohantavirus tulaense
[15] = source organism: Cryptosporidium parvum
[16] = source organism: Toxoplasma gondii RH
[17] = source organism: Coxiella burnetii Q321
[18] = source organism: Orthohantavirus hantanense
[19] = source organism: Cryptosporidium parvum Iowa II

YAAPQLFPV gave a Kd (HLA-C*05:01) of 0.065 µM, a Kd (HLA-C*08:02) of 0.069 µM and a Kd (HLA-C*12:03; source organism: human gammaherpesvirus 4) of 0.004 µM.
With MSRKLHRYI the Kd (HLA-A*01:01; [13]) was no less than 20 µM, the Kd (HLA-A*02:01; [13]) was no less than 20 µM and the Kd (HLA-A*02:11; [14]) was no less than 20 µM. For the same sequence, the Kd (HLA-A*02:12; [14]) was no less than 20 µM, the Kd (HLA-A*03:01; [14]) was no less than 20 µM and the Kd (HLA-A*23:01; [14]) was no less than 20 µM. It also gave a Kd (HLA-A*24:03; [14]) of no less than 20 µM, a Kd (HLA-A*29:02; [13]) of no less than 20 µM and a Kd (HLA-A*68:02; [14]) of no less than 20 µM. It also gave a Kd (HLA-B*07:02; [13]) of no less than 20 µM, a Kd (HLA-B*08:01; [13]) of 4.71 µM and a Kd (HLA-B*15:01; [13]) of no less than 20 µM. It also gave a Kd (HLA-B*18:01; [13]) of no less than 20 µM, a Kd (HLA-B*27:05; [13]) of no less than 20 µM and a Kd (HLA-B*40:01; [13]) of no less than 20 µM. For the same sequence, the Kd (HLA-B*46:01; [13]) was no less than 20 µM, the Kd (HLA-B*48:01) was no less than 20 µM and the Kd (HLA-C*12:03; [14]) was 0.441 µM. The Kd (HLA-A*26:01 [1]) was no less than 20 µM, the Kd (HLA-A*69:01 [2]) was no less than 20 µM and the Kd (HLA-B*27:03 [3]) was no less than 20 µM. It also gave a Kd (HLA-B*39:01 [4]) of no less than 20 µM and a Kd (HLA-B*51:01 [5]) of no less than 20 µM.
WLPWIPQLI showed a Kd (HLA-A*01:01; [15]) of no less than 20 µM, a Kd (HLA-A*02:01; [15]) of 1.24 µM and a Kd (HLA-A*03:01; [15]) of no less than 20 µM. It also gave a Kd (HLA-A*11:01) of no less than 20 µM, a Kd (HLA-A*24:03; [15]) of 3.44 µM and a Kd (HLA-A*26:01 [6]; [15]) of no less than 20 µM. It also gave a Kd (HLA-A*31:01) of no less than 20 µM, a Kd (HLA-A*69:01 [7]; [15]) of 0.415 µM and a Kd (HLA-B*08:01; [15]) of no less than 20 µM. The Kd (HLA-B*15:01; [15]) was no less than 5 µM, the Kd (HLA-B*27:05; [15]) was no less than 20 µM and the Kd (HLA-B*35:01; [15]) was 16 µM. For the same sequence, the Kd (HLA-B*40:01; [15]) was no less than 20 µM, the Kd (HLA-B*44:02) was no less than 20 µM and the Kd (HLA-B*58:01) was no less than 20 µM. It also gave a Kd (HLA-A*02:50) of 0.0046 µM.
Work on LTMNLVSDI yielded a Kd (HLA-A*03:01; [16]) of no less than 20 µM, a Kd (HLA-A*24:03; [16]) of no less than 20 µM and a Kd (HLA-A*26:01 [6]; [16]) of no less than 20 µM. It also gave a Kd (HLA-B*15:01; [16]) of no less than 20 µM, a Kd (HLA-B*15:17; [16]) of 0.003 µM and a Kd (HLA-B*18:01; [16]) of no less than 20 µM. For the same sequence, the Kd (HLA-B*27:03 [8]; [16]) was no less than 20 µM, the Kd (HLA-B*39:01 [9]; [16]) was no less than 20 µM and the Kd (HLA-B*46:01; [16]) was no less than 20 µM. For the same sequence, the Kd (HLA-B*57:01; [16]) was no less than 20 µM.
MTGVMRGNY gave a Kd (HLA-A*80:01; source organism: Yellow fever virus strain Ghana/Asibi/1927) of 0.38 µM.
FMAAFYRVM gave a Kd (HLA-C*12:03; source organism: Shigella boydii CDC 3083-94) of no more than 0.001 µM and a Kd (HLA-B*15:02 [10]) of 0.0183 µM.
Work on DGAEGINPY yielded a Kd (HLA-A*02:01; [17]) of no less than 20 µM, a Kd (HLA-A*02:03; [17]) of no less than 20 µM and a Kd (HLA-A*02:11; [17]) of no less than 20 µM. It also gave a Kd (HLA-A*02:12; [17]) of no less than 20 µM, a Kd (HLA-A*02:16; [17]) of no less than 20 µM and a Kd (HLA-A*02:19; [17]) of no less than 20 µM. The Kd (HLA-A*03:01; [17]) was no less than 20 µM, the Kd (HLA-A*23:01; [17]) was no less than 20 µM and the Kd (HLA-A*24:03; [17]) was no less than 20 µM. For the same sequence, the Kd (HLA-A*26:01 [6]; [17]) was no less than 20 µM, the Kd (HLA-A*29:02; [17]) was no less than 20 µM and the Kd (HLA-A*68:02; [17]) was no less than 20 µM. It also gave a Kd (HLA-A*69:01 [7]; [17]) of no less than 20 µM, a Kd (HLA-B*07:02; [17]) of 8.58 µM and a Kd (HLA-B*15:01; [17]) of 11 µM. For the same sequence, the Kd (HLA-B*15:17; [17]) was no less than 20 µM, the Kd (HLA-B*18:01; [17]) was no less than 20 µM and the Kd (HLA-B*27:03 [8]; [17]) was no less than 20 µM. It also gave a Kd (HLA-B*35:01; [17]) of 0.267 µM, a Kd (HLA-B*39:01 [9]; [17]) of no less than 20 µM and a Kd (HLA-B*46:01; [17]) of no less than 20 µM. It also gave a Kd (HLA-B*51:01 [11]; [17]) of no less than 20 µM and a Kd (HLA-B*57:01; [17]) of no less than 20 µM.
Work on LQYAIRSVF yielded a Kd (HLA-B*15:01; [18]) of 0.004 µM, a Kd (HLA-B*15:02 [12]) of 0.008 µM and a Kd (HLA-B*46:01; [18]) of 1.95 µM.
Sequence LPWFLDTTI has a Kd (HLA-A*02:01; [19]) of no less than 20 µM, a Kd (HLA-A*02:03; [19]) of no less than 20 µM and a Kd (HLA-A*02:12; [19]) of no less than 20 µM. The Kd (HLA-A*02:16; [19]) was no less than 20 µM, the Kd (HLA-A*02:19; [19]) was no less than 20 µM and the Kd (HLA-A*03:01; [19]) was no less than 20 µM. For the same sequence, the Kd (HLA-A*26:01 [6]; [19]) was no less than 20 µM, the Kd (HLA-B*15:01; [19]) was no less than 20 µM and the Kd (HLA-B*18:01; [19]) was no less than 20 µM. The Kd (HLA-B*27:03 [8]; [19]) was no less than 20 µM, the Kd (HLA-B*39:01 [9]; [19]) was no less than 20 µM and the Kd (HLA-B*46:01; [19]) was no less than 20 µM. The Kd (HLA-B*51:01 [11]; [19]) was 0.034 µM and the Kd (HLA-B*57:01; [19]) was no less than 20 µM.
HSEEGSRAY gave a Kd (HLA-A*80:01; source organism: Yellow fever virus) of no less than 20 µM.
